Literature values in US8257684B2, “Methods for identifying and targeting autonomic brain regions” (Neurosigma, Inc., priority 2008, dated 2012).
No end group written: not given here.

Target: T1, OX1R (Homo sapiens, UniProt O43613)
T1 sequence (O43613 1-425): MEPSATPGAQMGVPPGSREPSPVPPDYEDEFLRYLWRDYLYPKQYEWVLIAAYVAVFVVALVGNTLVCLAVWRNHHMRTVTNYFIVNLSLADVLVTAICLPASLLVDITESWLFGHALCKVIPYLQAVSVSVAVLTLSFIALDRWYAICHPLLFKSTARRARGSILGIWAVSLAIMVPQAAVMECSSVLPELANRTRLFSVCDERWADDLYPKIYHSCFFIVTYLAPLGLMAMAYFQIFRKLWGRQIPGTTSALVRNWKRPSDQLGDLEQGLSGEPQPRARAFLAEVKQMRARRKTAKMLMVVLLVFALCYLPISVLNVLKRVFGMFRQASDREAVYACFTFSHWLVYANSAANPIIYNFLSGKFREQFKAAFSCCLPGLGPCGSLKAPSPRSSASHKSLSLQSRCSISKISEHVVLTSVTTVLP
Conditions: ORXa versus ORXb; Lund et al., Journal of Biological Chemistry

For “Orexin-A (QPLPDCCRQKTCSCRLYELLHGAGNHAAGILTL; not fully specified (residue 1, C-terminus, bridges); cysteine pairing not given here; UniProt O43612 34-66, looked up) [ORXa, ORX molecule produced in the LHA; agonist of OX1R]”, the “higher affinity of OX1R for ORXa than for ORXb” value is given as “approximately 10 fold”.
